Source: patent US20260250412A1 (GENEQUANTUM HEALTHCARE SUZHOU, published 2026)
Numbering of substitutions follows the chain as printed.

How the values were obtained:
[1] = target: T1, recombinant extracellular domain of human TROP2 (human, UniProt P09758 27-274); assay: ELISA on plate-coated human Trop2 ECD (0.5 ug/mL), detection with goat anti-human Fc-HRP, TMB, absorbance at 450 nm
T1 construct: extracellular domain; also called Human Trop 2 ECD; Trop2 ECD
T1 sequence (looked up): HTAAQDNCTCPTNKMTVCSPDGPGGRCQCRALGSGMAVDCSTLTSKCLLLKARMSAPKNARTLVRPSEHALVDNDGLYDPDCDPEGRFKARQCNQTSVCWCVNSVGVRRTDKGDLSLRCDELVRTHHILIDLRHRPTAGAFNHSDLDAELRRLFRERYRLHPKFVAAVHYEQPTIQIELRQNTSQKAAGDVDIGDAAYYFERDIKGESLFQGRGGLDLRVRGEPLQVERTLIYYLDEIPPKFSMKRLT
Procedure: Human Trop 2 ECD at concentration of 0.5 μg/mL was coated on 96-well plates at 4° C. for overnight. The plates were then blocked with 3% BSA-PBST for 1 h at room temperature. […] After incubation goat anti-human FC secondary antibody (HRP) (Sinobiological, SSA001) was added at a ratio of 1:100000 and incubated at room temperature for 60 min again. Following the wash, the plate was treated with TMB solution (Sigma, T0440) as an HRP substrate, and the reaction was stopped with 1 M H₂SO₄. The absorbance for each well was detected at 450 nm wavelength.

[2] = target: T1, recombinant extracellular domain of …; assay: SPR (Biacore T200), antibody captured on Protein A chip, TROP2 ECD as analyte, 1:1 model, 25 C
Procedure: Binding kinetics and affinity analysis were performed. Surface Plasmon Resonance (SPR) analysis was performed on a Biacore T200 (GE healthcare) with a Sensor Chip Protein A (GE healthcare) following manufacturer's instructions. All measurements were performed at 25° C. in the HBS-EP⁺ buffer (10 mM HEPES, pH 7.4, 150 mM NaCl, 3 mM EDTA, and 0.05% surfactant P20). About 110-140 RU (Resonance unit) of each of the purified antibodies was captured on flow cells 2 and 4 (i.e., the reaction surface) of the sensor chip, respectively. Flow cells 1 and 3 were treated with the HBS-EP⁺ buffer to serve as reference surfaces.
Serial dilutions of the recombinant extracellular domain of human TROP2 (i.e., the analyte) (Acrobio system) (243, 81, 27, 9, 3, 1, 0.333, and 0.111 nM, respectively) were prepared in HBS-EP⁺ buffer. Capturing of the antibodies was followed by a three-minute injection (association phase) of serial dilutions of TROP2 at a flow rate of 30 μL/min and ten minutes of buffer flow (dissociation phase). The chip surface was regenerated by two pulses of 30-second injection of 10 mM Glycine-HCl pH 1.5 at a flow rate of 50 μL/min. The collected data were processed on a Biacore T200 Evaluation software using methods known in the art, comprising the following steps: (1) setting the response on the y-axis and the start of the injection on the x-axis to zero, (2) performing double referencing by firstly subtracting the reference surface data from the reaction surface data to get the analyte injection curves, and then subtracting the buffer injection curves from the analyte injection curves, and (3) performing the kinetic analysis using the 1:1 binding model with a global fit.

B1: ADC-2 (antibody, human IgG1, kappa)
heavy: not shown
light: DIQLTQSPSSLSASVGDRVSITCKASQDVSIAVAWYQQKPGKAPKLLIYSASYRYTGVPDRFSGSGSGTDFTLTISSLQPEDFAVYYCQQHYITPLTFGAGTKVEIKRTVAAPSVFIFPPSDEQLKSGTASVVCLLNNFYPREAKVQWKVDNALQSGNSQESVTEQDSKDSTYSLSSTLTLSKADYEKHKVYACEVTHQGLSSPVTKSFNRGECGALPETGG
For B1, the “EC50 (read off the curve)” value [1] was about 0.02 µg/mL.

B2: GQhRS7 (antibody, human IgG1, kappa)
heavy: not shown
light: B1 light
notes: unconjugated
B2 was tested, and the “EC50 (read off the curve)” value [1] was about 0.02 µg/mL.

B3: Trodelvy (antibody, human IgG1, kappa)
heavy: not shown
light: DIQLTQSPSSLSASVGDRVSITCKASQDVSIAVAWYQQKPGKAPKLLIYSASYRYTGVPDRFSGSGSGTDFTLTISSLQPEDFAVYYCQQHYITPLTFGAGTKVEIKRTVAAPSVFIFPPSDEQLKSGTASVVCLLNNFYPREAKVQWKVDNALQSGNSQESVTEQDSKDSTYSLSSTLTLSKADYEKHKVYACEVTHQGLSSPVTKSFNRGEC
modifications: SN-38 conjugated; sites not stated
notes: also called IMMU-132
In the case of B3, the “EC50 (read off the curve)” value [1] is reported as about 0.02 µg/mL.

B4: hRS7 (from TRODELVY) (antibody, human IgG1, kappa)
heavy: not shown
light: B3 light
notes: expressed in HEK293F; also called Trodelvy's antibody
B4 showed a Kd [2] of 1.28 nM.

B5: Ab13 (antibody, human IgG1, kappa, V domains shown)
VH: QVQLQQSGSELKKPGASVKVSCKASGYTFTNAGMNWVKQAPGQGLKWMGWINTDSGEPTYTDDFKGRFAFSLDTSVSTAYLQISSLKADDTAVYFCARGGFGSSYWYFDVWGQGSLVTVSS
VL: DIQLTQSPSSLSASVGDRVSITCKASQDVSIAVAWYQQKPGKAPKLLIYSASYRYTGVPDRFSGSGSGTDFTLTISSLQPEDFAVYYCQQHYITPLTFGAGTKVEIKR
B5 was tested, and the Kd [2] was 8.16 nM.

B6: Ab16 (antibody, human IgG1, kappa, V domains shown)
VH: B5 VH with N31A, D54Y, S55T
VL: B5 VL
B6 gave a Kd [2] of 13.1 nM.

B7: Datopotamab (antibody, human IgG1, kappa, V domains shown)
VH: QVQLVQSGAEVKKPGASVKVSCKASGYTFTTAGMQWVRQAPGQGLEWMGWINTHSGVPKYAEDFKGRVTISADTSTSTAYLQLSSLKSEDTAVYYCARSGFGSSYWYFDVWGQGTLVTVSS
VL: B5 VL with L4M, S20T, I31T, D60S, A100Q, V104L
notes: expressed in HEK293F; also called DS1062a Ab; DS1062's antibody
B7 was tested, and the Kd [2] was 13 nM.
